# Reference: patent US7585836B2, “Bi-lateral local renal delivery for treating congestive heart failure and for BNP therapy” (priority 2004, dated 2009)
# Several values for one entry are separate records, joined by “and”; a condition that tells them apart may be missing. Equal entries are not always repeated.
# Assays:
# [1] = Pharmacokinetics: serum BNP levels after intra-renal (IR) versus intravenous (IV) BNP administration in the canine model; assay type: in vivo; conditions: for difference between serum BNP levels with IR versus IV infusion at comparable time points: higher with IV
# Experimental: (§1) IR versus IV administration of human recombinant BNP (Natrecor® agent, Scios, Inc., Johnson & Johnson) was compared in the canine model (two animals). IR infusion was achieved using the FlowMedica Benephit™ Infusion System (FlowMedica, Inc.). IV and IR administration was performed in each animal sequentially, and the administration periods were separated by five days to allow for washout and re-acclimation of the animals. IV administration was conducted on the first day in both animals. Other than the route of BNP administration, all other parameters were identical between the IV and IR administration days in both dogs.
# (§2) Canine #1 received a 2 mcg/kg/min bolus of BNP followed immediately by a 0.15 mcg/kg/min BNP infusion for 90 minutes, followed by a 2-hour washout period. Then vasoconstriction was induced via phenylepherine until mean arterial pressure (MAP) was increased by approximately 30% (approximately 1 hour), and then BNP was again administered at 0.15 mcg/kg/min for 90 minutes.
# Canine #2 received a 2 mcg/kg/min BNP bolus followed immediately by a 4-hour continuous infusion of BNP at 0.15 mcg/kg/min.
# (§3) Key endpoints included serum levels of BNP (pharmacokinetics, both animals) following IR and IV BNP administration, and blood pressure response in response IR and IV BNP administration (Canine #1 only).
# canine model = assay: Blood pressure (mean arterial pressure) response to IR and IV BNP during phenylepherine-induced vasoconstriction; assay type: in vivo; conditions: Canine #1, constricted vascular state induced by phenylepherine
# Experimental: as §1, §2, §3
substance,measurement,setting,value
nesiritide [BNP],difference between serum BNP levels with IR versus IV infusion at comparable time points,"[1]; Canine #1, 2 mcg/kg/min bolus then 0.15 mcg/kg/min infusion",75% and 66%
same,difference between serum BNP levels with IR versus IV infusion at comparable time points,"[1]; Canine #2, 2 mcg/kg/min bolus then 4-hour infusion at 0.15 mcg/kg/min",61% and 69%
same,lower systemic levels with IR than with IV administration of the same dose,"[1]; both canines, same dose",61-75%
same,"average reduction of steady-state plasma BNP levels, IR versus systemic (IV) administration","[1]; two dogs, given dose IR versus IV",63%
same,maximum reduction in mean arterial pressure (MAP),canine model; IR BNP 0.15 mcg/kg/min,15%
same,maximum reduction in mean arterial pressure (MAP),canine model; IV BNP 0.15 mcg/kg/min,50%
